# Positions of bridges follow the written chain, without caps; N, C: chain ends. Non-standard residues stand in square brackets, D forms with d. Trp(7-Me) = Cc1cccc2c(C[C@H](N)C(=O)O)c[nH]c12; Trp(2-Me) = Cc1[nH]c2ccccc2c1C[C@H](N)C(=O)O; 2Nal = N[C@@H](Cc1ccc2ccccc2c1)C(=O)O; AEF = NCCOc1ccc(C[C@H](N)C(=O)O)cc1; Cit = NC(=O)NCCC[C@H](N)C(=O)O; Pen = CC(C)(S)[C@H](N)C(=O)O; αMeK = C[C@](N)(CCCCN)C(=O)O; βAla = NCCC(=O)O
# T1: interleukin-23 receptor (IL-23R) (human, UniProt Q5VWK5 24-629)
# T1 sequence (looked up): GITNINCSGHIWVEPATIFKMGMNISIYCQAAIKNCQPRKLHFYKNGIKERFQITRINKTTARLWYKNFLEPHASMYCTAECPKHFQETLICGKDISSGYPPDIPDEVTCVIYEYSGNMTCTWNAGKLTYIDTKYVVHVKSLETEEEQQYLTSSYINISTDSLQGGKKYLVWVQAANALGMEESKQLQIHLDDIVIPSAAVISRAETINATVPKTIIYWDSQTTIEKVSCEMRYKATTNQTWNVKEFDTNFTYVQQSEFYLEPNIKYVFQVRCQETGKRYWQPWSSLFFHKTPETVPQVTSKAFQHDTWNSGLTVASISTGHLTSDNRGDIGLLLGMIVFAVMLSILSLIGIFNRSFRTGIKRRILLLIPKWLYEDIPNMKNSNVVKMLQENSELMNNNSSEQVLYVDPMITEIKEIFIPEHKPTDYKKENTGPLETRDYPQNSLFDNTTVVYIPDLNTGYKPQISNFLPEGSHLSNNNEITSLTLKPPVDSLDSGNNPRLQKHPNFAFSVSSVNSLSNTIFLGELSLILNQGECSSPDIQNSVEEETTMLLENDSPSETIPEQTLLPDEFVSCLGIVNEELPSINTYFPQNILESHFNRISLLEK
# B1: Peptide of SEQ ID NO: 238 (peptide)
# peptide: Ac-[Pen][Cit]T[Trp(7-Me)]Q[Pen][AEF][2Nal][αMeK]K(Ac)N[βAla]-NH2
# modifications: disulfide 1-6
# SMILES: CC(=O)NCCCC[C@H](NC(=O)[C@](C)(CCCCN)NC(=O)[C@H](Cc1ccc2ccccc2c1)NC(=O)[C@H](Cc1ccc(OCCN)cc1)NC(=O)[C@H]1NC(=O)[C@H](CCC(N)=O)NC(=O)[C@H](Cc2c[nH]c3c(C)cccc23)NC(=O)[C@H]([C@@H](C)O)NC(=O)[C@H](CCCNC(N)=O)NC(=O)[C@@H](NC(C)=O)C(C)(C)SSC1(C)C)C(=O)N[C@@H](CC(N)=O)C(=O)NCCC(N)=O
# B2: Peptide of SEQ ID NO: 226 (peptide)
# peptide: XNTXQXXXXKXX
# modifications: Ac-[Pen]-NT-[W(7-Me)]-Q-[Pen]-Phe[4-(2-aminoethoxy)]-[2-Nal]-[a-MeLeu]-[Lys(Ac)]-[bA]-[bA]-NH2; Pen-Pen disulfide
# B3: Peptide of SEQ ID NO: 355 (peptide)
# peptide: XNTXKXXXXXNL
# modifications: Ac-[Pen]-N-T-[W(7-Me)]-[Lys(Ac)]-[Pen]-Phe[4-(2-aminoethoxy)]-[2-Nal]-[a-MeLys]-[Lys(Ala)]-N-[(D)Leu]-NH2; Pen-Pen disulfide
# B4: Peptide of SEQ ID NO: 217 (peptide)
# peptide: XNTXQXXXXKTX
# modifications: Ac-[Pen]-NT-[W(7-Me)]-Q-[Pen]-Phe[4-(2-aminoethoxy)]-[2-Nal]-[a-MeLeu]-[Lys(Ac)]-T-[bA]-NH2; Pen-Pen disulfide
# B5: Peptide of SEQ ID NO: 205 (peptide)
# peptide: XNTXQXXXXKGX
# modifications: Ac-[Pen]-NT-[W(7-Me)]-Q-[Pen]-Phe[4-(2-aminoethoxy)]-[2-Nal]-[a-MeLeu]-[Lys(Ac)]-G-[bA]-NH2; Pen-Pen disulfide
# B6: Peptide of SEQ ID NO: 358 (peptide)
# peptide: XNTXKXXXXXNL
# modifications: Ac-[Pen]-N-T-[W(7-Me)]-[Lys(Ac)]-[Pen]-Phe[4-(2-aminoethoxy)]-[2-Nal]-[a-MeLys]-[Lys(octanoic)]-N-[(D)Leu]-NH2; Pen-Pen disulfide
# B7: Peptide of SEQ ID NO: 356 (peptide)
# peptide: XNTXKXXXXXNL
# modifications: Ac-[Pen]-N-T-[W(7-Me)]-[Lys(Ac)]-[Pen]-Phe[4-(2-aminoethoxy)]-[2-Nal]-[a-MeLys]-[Lys(IVA)]-N-[(D)Leu]-NH2; Pen-Pen disulfide
# B8: Peptide of SEQ ID NO: 207 (peptide)
# peptide: XNTXQXXXXKAX
# modifications: Ac-[Pen]-NT-[W(7-Me)]-Q-[Pen]-Phe[4-(2-aminoethoxy)]-[2-Nal]-[a-MeLeu]-[Lys(Ac)]-A-[bA]-NH2; Pen-Pen disulfide
# B9: Peptide of SEQ ID NO: 239 (peptide)
# peptide: XKTXQXXXXKNX
# modifications: Ac-[Pen]-[Lys(Ac)]-T-[W(7-Me)]-Q-[Pen]-Phe[4-(2-aminoethoxy)]-[2-Nal]-[a-MeLys]-[Lys(Ac)]-N-[bA]-NH2; Pen-Pen disulfide
# B10: Peptide of SEQ ID NO: 236 (peptide)
# peptide: XNTXQXXXXXNX
# modifications: Ac-[Pen]-NT-[W(7-Me)]-Q-[Pen]-Phe[4-(2-aminoethoxy)]-[2-Nal]-[a-MeLys]-[Aib]-N-[bA]-NH2; Pen-Pen disulfide
# B11: Peptide of SEQ ID NO: 245 (peptide)
# peptide: XNTXKXXXXKNL
# modifications: Ac-[Pen]-NT-[W(7-Me)]-[Lys(Ac)]-[Pen]-Phe[4-(2-aminoethoxy)]-[2-Nal]-[a-MeLys]-[Lys(Ac)]-N-[(D)Leu]-NH2; Pen-Pen disulfide
# B12: Peptide of SEQ ID NO: 206 (peptide)
# peptide: XNTXQXXXXKXX
# modifications: Ac-[Pen]-NT-[W(7-Me)]-Q-[Pen]-Phe[4-(2-aminoethoxy)]-[2-Nal]-[a-MeLeu]-[Lys(Ac)]-[Cit]-[bA]-NH2; Pen-Pen disulfide
# B13: Peptide of SEQ ID NO: 242 (peptide)
# peptide: XNTXKXXXXKNX
# modifications: Ac-[Pen]-NT-[W(7-Me)]-[Lys(Ac)]-[Pen]-Phe[4-(2-aminoethoxy)]-[2-Nal]-[a-MeLys]-[Lys(Ac)]-N-[bA]-NH2; Pen-Pen disulfide
# B14: Peptide of SEQ ID NO: 225 (peptide)
# peptide: XNTXQXXXXKXX
# modifications: Ac-[Pen]-NT-[W(7-Me)]-Q-[Pen]-Phe[4-(2-aminoethoxy)]-[2-Nal]-[a-MeLeu]-[Lys(Ac)]-[a-MeLeu]-[bA]-NH2; Pen-Pen disulfide
# B15: Peptide of SEQ ID NO: 354 (peptide)
# peptide: XNTXKXXXXKNN
# modifications: Ac-[Pen]-N-T-[W(7-Me)]-[Lys(Ac)]-[Pen]-Phe[4-(2-aminoethoxy)]-[2-Nal]-[a-MeLeu]-[Lys(Ac)]-N-[(D)Asn]-NH2; Pen-Pen disulfide
# B16: Peptide of SEQ ID NO: 252 (peptide)
# peptide: XNTXKXXXXKNK
# modifications: Ac-[Pen]-NT-[W(7-Me)]-[Lys(Ac)]-[Pen]-Phe[4-(2-aminoethoxy)]-[2-Nal]-[a-MeLys]-[Lys(Ac)]-N-[(D)Lys]-NH2; Pen-Pen disulfide
# B17: Peptide of SEQ ID NO: 214 (peptide)
# peptide: XNTXQXXXXKHX
# modifications: Ac-[Pen]-NT-[W(7-Me)]-Q-[Pen]-Phe[4-(2-aminoethoxy)]-[2-Nal]-[a-MeLeu]-[Lys(Ac)]-H-[bA]-NH2; Pen-Pen disulfide
# B18: Peptide of SEQ ID NO: 259 (peptide)
# peptide: Ac-[Pen]NT[Trp(7-Me)][Cit][Pen][AEF][2Nal][αMeK]K(Ac)N[dY]-NH2
# modifications: disulfide 1-6
# SMILES: CC(=O)NCCCC[C@H](NC(=O)[C@](C)(CCCCN)NC(=O)[C@H](Cc1ccc2ccccc2c1)NC(=O)[C@H](Cc1ccc(OCCN)cc1)NC(=O)[C@H]1NC(=O)[C@H](CCCNC(N)=O)NC(=O)[C@H](Cc2c[nH]c3c(C)cccc23)NC(=O)[C@H]([C@@H](C)O)NC(=O)[C@H](CC(N)=O)NC(=O)[C@@H](NC(C)=O)C(C)(C)SSC1(C)C)C(=O)N[C@@H](CC(N)=O)C(=O)N[C@H](Cc1ccc(O)cc1)C(N)=O
# B19: Peptide of SEQ ID NO: 224 (peptide)
# peptide: XNTXQXXXXKXX
# modifications: Ac-[Pen]-NT-[W(7-Me)]-Q-[Pen]-Phe[4-(2-aminoethoxy)]-[2-Nal]-[a-MeLeu]-[Lys(Ac)]-[Sarc]-[bA]-NH2; Pen-Pen disulfide
# B20: Peptide of SEQ ID NO: 357 (peptide)
# peptide: XNTXKXXXXXNL
# modifications: not fully specified; Ac-[Pen]-N-T-[W(7-Me)]-[Lys(Ac)]-[Pen]-Phe[4-(2-aminoethoxy)]-[2-Nal]-[a-MeLys]-[Lys(cyclohexyl)]-N-[(D)Leu]-NH2; Pen-Pen disulfide
# Target: T1, interleukin-23 receptor (IL-23R)
# Test: cell-based or functional assay
row,pStat3 HTRF IC50,Binder
1,1.06 nM,B1
2,25.7 nM,B2
3,0.456 nM,B3
4,1.61 nM,B4
5,4.46 nM,B5
6,3.03 nM,B6
7,0.193 nM,B7
8,1.46 nM,B8
9,1.66 nM,B9
10,5.21 nM,B10
11,0.51 nM,B11
12,12 nM,B12
13,0.641 nM,B13
14,56.7 nM,B14
15,0.283 nM,B15
16,0.338 nM,B16
17,0.715 nM,Ac-[Pen]NT[Trp(7-Me)]K(Ac)[Pen][AEF][Trp(2-Me)][αMeK]K(Ac)N[dK]-NH2 (disulfide 1-6 (inferred)) [Peptide of SEQ ID NO: 353]
18,1.53 nM,B17
19,0.607 nM,B18
20,124 nM,B19
21,0.331 nM,B20

# Target: T1, interleukin-23 receptor (IL-23R)
# Test: cell-based or functional assay
# Remark: another data set of the same source
row,NK Cell Assay IC50,Binder
1,2.99 nM,B1
2,9.55 nM,B2
3,5.34 nM,B3
4,13.3 nM,B4
5,16.6 nM,B5
6,6.3 nM,B6
7,4.01 nM,B7
8,8.4 nM,B8
9,4.1 nM,B9
10,5.82 nM,B10
11,2.7 nM,B11
12,21.4 nM,B12
13,2.37 nM,B13
14,114 nM,B14
15,1.62 nM,B15
16,3.32 nM,B16
17,7.1 nM,Ac-[Pen]NT[Trp(7-Me)]K(Ac)[Pen][AEF][Trp(2-Me)][αMeK]K(Ac)N[dK]-NH2 (disulfide 1-6 (inferred)) [Peptide of SEQ ID NO: 353]
18,6.3 nM,B17
19,7.6 nM,B18
20,> 500 nM,B19
21,3.8 nM,B20
